# Measurements published in patent publication US11452764B2, “Inhibiting FAK-AKT interaction to inhibit metastasis” (Board of Trustees of Michigan State University, priority 2017, dated 2022).
# B1: HA-conjugated wild type FAK: HA-tagged wild type FAK expressed in Caco-2 cells (protein)
# chain: MAAAYLDPNLNHTPNSSTKTHLGTGMERSPGAMERVLKVFHYFESNSEPTTWASIIRHGDATDVRGIIQKIVDSHKVKHVACYGFRLSHLRSEEVHWLHVDMGVSSVREKYELAHPPEEWKYELRIRYLPKGFLNQFTEDKPTLNFFYQQVKSDYMLEIADQVDQEIALKLGCLEIRRSYWEMRGNALEKKSNYEVLEKDVGLKRFFPKSLLDSVKAKTLRKLIQQTFRQFANLNREESILKFFEILSPVYRFDKECFKCALGSSWIISVELAIGPEEGISYLTDKGCNPTHLADFTQVQTIQYSNSEDKDRKGMLQLKIAGAPEPLTVTAPSLTIAENMADLIDGYCRLVNGTSQSFIIRPQKEGERALPSIPKLANSEKQGMRTHAVSVSETDDYAEIIDEEDTYTMPSTRDYEIQRERIELGRCIGEGQFGDVHQGIYMSPENPALAVAIKTCKNCTSDSVREKFLQEALTMRQFDHPHIVKLIGVITENPVWIIMELCTLGELRSFLQVRKYSLDLASLILYAYQLSTALAYLESKRFVHRDIAARNVLVSSNDCVKLGDFGLSRYMEDSTYYKASKGKLPIKWMAPESINFRRFTSASDVWMFGVCMWEILMHGVKPFQGVKNNDVIGRIENGERLPMPPNCPPTLYSLMTKCWAYDPSRRPRFTELKAQLSTILEEEKAQQEERMRMESRRQATVSWDSGGSDEAPPKPSRPGYPSPRSSEGFYPSPQHMVQTNHYQVSGYPGSHGITAMAGSIYPGQASLLDQTDSWNHRPQEIAMWQPNVEDSTVLDLRGIGQVLPTHLMEERLIRQQQEMEEDQRWLEKEERFLKPDVRLSRGSIDREDGSLQGPIGNQHIYQPVGKPDPAAPPKKPPRPGAPGHLGSLASLSSPADSYNEGVKLQPQEISPPPTANLDRSNDKVYENVTGLVKAVIEMSSKIQPAPPEEYVPMVKEVGLALRTLLATVDETIPLLPASTHREIEMAQKLLNSDLGELINKMKLAQQYVMTSLQQEYKKQMLTAAHALAVDAKNLLDVIDQARLKMLGQTRPH
# modifications: left off: small tags and cut ends
# notes: HA-tagged wild type FAK expressed in Caco-2 cells
# B2: NT1-2: recombinant GST-FAK truncated peptide, residues 61-126 (protein, listed as Homo sapiens)
# chain: ATDVRGIIQKIVDSHKVKNVACYGFRLSHLRSEEVHWLHVDMGVSSVREKYELAHPPEEWKYELRI
# modifications: GST tag
# B3: HA-conjugated FRNK: HA-tagged FAK-related non-kinase, 67 kDa segment from the COOH-terminal region of FAK (protein)
# chain: MESRRQATVSWDSGGSDEAPPKPSRPGYPSPRSSEGFYPSPQHMVQTNHYQVSGYPGSHGITAMAGSIYPGQASLLDQTDSWNHRPQEIAMWQPNVEDSTVLDLRGIGQVLPTHLMEERLIRQQQEMEEDQRWLEKEERFLKPDVRLSRGSIDREDGSLQGPIGNQHIYQPVGKPDPAAPPKKPPRPGAPGHLGSLASLSSPADSYNEGVKLQPQEISPPPTANLDRSNDKVYENVTGLVKAVIEMSSKIQPAPPEEYVPMVKEVGLALRTLLATVDETIPLLPASTHREIEMAQKLLNSDLGELINKMKLAQQYVMTSLQQEYKKQMLTAAHALAVDAKNLLDVIDQARLKMLGQTRPH
# modifications: left off: small tags and cut ends
# notes: HA-tagged FAK-related non-kinase, 67 kDa segment from the COOH-terminal region of FAK
# B4: GFP-FAK-NT1: GFP fusion of FAK-NT1 (residues 1-126) expressed transiently or inducibly in cells (protein)
# chain: MAAAYLDPNLNHTPNSSTKTHLGTGMERSPGAMERVLKVFHYFESNSEPTTWASIIRHGDATDVRGIIQKIVDSHKVKNVACYGFRLSHLRSEEVHWLHVDMGVSSVREKYELAHPPEEWKYELRI
# modifications: left off: large carriers
# notes: GFP fusion of FAK-NT1 (residues 1-126) expressed transiently or inducibly in cells
# B5: NT1: recombinant GST-FAK truncated peptide, FAK residues 1-126 (SEQ ID NO:3) (protein)
# chain: B4 chain
# modifications: left off: large carriers
# Experiments:
# Akt1 [1] = molecular target: T1, Akt1 (Homo sapiens, UniProt P31749); experiment: GST-Akt1 pull-down of HA-tagged wild type FAK or FRNK from transfected Caco-2 cell lysate; format: binding; parameters: made in house; host or cells: bacteria (pGEX-4T1; E. coli BL21 is printed only for the GST-FAK fusions); details: lysate of transiently transfected Caco-2 cells; 1 of 2 similar experiments
# Protocol: Glutathione-Sepharose 4B beads (15 μl) were washed twice in ice-cold PBS and resuspended in 400 μl PBS. Bacterial lysate containing GST-Akt1, GST-FAK-NT1 (truncations), or GST proteins (gift of Dr. J. Chen) were then added in excess and incubated with the beads for 1 h. Glutathione-Sepharose 4B beads coupled to GST-Akt1, GST-FAK (truncations), or GST were then washed twice with PBS by centrifuge for 5 min at 500 g and incubated with nontransfected or transfected Caco-2 cell lysates (600-800 μg protein) overnight at 4° C. Transfected Caco-2 cells received plasmids encoding HA-WT-FAK or HA-FRNK. Nontransfected and transfected Caco-2 cell lysates were prepared in cell lysis buffer lysis buffer [50 mM Tris (pH 7.4), 150 mM NaCl, 1% Triton X-100, 1% sodium deoxycholate, 0.1% SDS, 1 mM EDTA, 1 mM phenylmethylsulfonyl fluoride, 1 mM Na3VO4, 50 mM NaF, 10 mM sodium pyrophosphate, […] (pH 7.4)]. Following incubation, beads were washed twice with lysis buffer without SDS and protease inhibitors. Proteins were eluted with Laemmli SDS sample dilution buffer, separated by 10% SDS-PAGE, and immunoblotted with GST, Akt1 (Cell Signaling Technology, Danvers, Mass.), or HA monoclonal antibodies (Covance, Chantilly, Va.). […]
# Akt1 [2] = molecular target: T1, Akt1; experiment: GST-FAK truncation/mutant fusion protein pull-down of Akt1 (cell lysate or purified Akt1); format: binding; parameters: endogenous in cells; host or cells: Caco-2 or SW620 cell lysate; details: for Akt1 pulled down by GST-FAK truncations: GST pull-down, N=4, p<0.05
# Protocol: Glutathione-Sepharose 4B beads (15 μl) were washed twice in ice-cold PBS and resuspended in 400 μl PBS. Bacterial lysate containing GST-Akt1, GST-FAK-NT1 (truncations), or GST proteins (gift of Dr. J. Chen) were then added in excess and incubated with the beads for 1 h. Glutathione-Sepharose 4B beads coupled to GST-Akt1, GST-FAK (truncations), or GST were then washed twice with PBS by centrifuge for 5 min at 500 g and incubated with nontransfected or transfected Caco-2 cell lysates (600-800 μg protein) overnight at 4° C. Transfected Caco-2 cells received plasmids encoding HA-WT-FAK or HA-FRNK. Nontransfected and transfected Caco-2 cell lysates were prepared in cell lysis buffer lysis buffer [50 mM Tris (pH 7.4), 150 mM NaCl, 1% Triton X-100, 1% sodium deoxycholate, 0.1% SDS, 1 mM EDTA, 1 mM phenylmethylsulfonyl fluoride, 1 mM Na3VO4, 50 mM NaF, 10 mM sodium pyrophosphate, […] (pH 7.4)]. Following incubation, beads were washed twice with lysis buffer without SDS and protease inhibitors. Proteins were eluted with Laemmli SDS sample dilution buffer, separated by 10% SDS-PAGE, and immunoblotted with GST, Akt1 (Cell Signaling Technology, Danvers, Mass.), or HA monoclonal antibodies (Covance, Chantilly, Va.).
# In some cases Glutathione-Sepharose-4B beads (30 μl) (GE Healthcare Life Science, Pittsburgh, Pa.) were conjugated with GST (expressed protein from a 250 μl bacterial pellet per 30 μl of beads) or recombinant GST-tagged (expressed protein from a 3 ml bacterial pellet per 30 μl of beads) (24) and incubated with lysate from 2×10^7 Caco-2 or SW620 cells (1500 μg protein) or purified Akt1 (0.35 μg) (Origene, Rockville, Md.) overnight at 4° C. […]
# Protein concentrations were determined by bicinchoninic acid (BCA) protein assay (Pierce, Rockford, Ill.). […] Membranes were visualized by the infrared fluorescent IRDye system (LI-COR Biosciences, Lincoln, Nebr.) and analyzed on an Odyssey scanner (LI-COR Biosciences, Lincoln, Nebr.) within the linear range. […]
# Caco-2 cells = experiment: Pressure-induced adhesion of Caco-2 cells transiently expressing GFP-FAK-NT1; format: cell-based, human; details: Caco-2, transient expression, vs GFP control
# Protocol: Caco-2 cells were plated on p100 dishes at 30-35% confluence one day prior to transfection. The constructed or empty plasmids were transfected into Caco-2 cells at final concentrations of 2 μg/ml plasmid and 5 μg/ml Lipofectamine 2000. Five hours after transfection, the medium was replaced with 15 ml pre-warmed Caco-2 media without antibiotics. Forty eight hours after DNA transfection, the cells were trypsinized for adhesion or pull-down experiments.
# Experimental pressure conditions were controlled using an airtight box with inlet and outlet valves, thumb screws, a pressure gauge and an O-ring for an airtight (11, 25). The box was prewarmed to 37° C. for 1 hour to […] minimize temperature fluctuations experienced by the cells. […]
# 100,000 Caco-2 or CT-26 cells were seeded to collagen I coated 6-well plates under ambient or increased pressure conditions for 30 minutes. […] The adherent cells were counted microscopically in at least 20 random high power fields per well under a fluorescent microscope.
# To test whether this interaction of NT1 with Akt1 might have biological effects, we evaluated the effect of overexpressing NT1 in Caco-2 cells on the adhesive response to increased extracellular pressure, which requires FAK-Akt1 interaction. […]
# CT-26 cells = experiment: Pressure-induced adhesion of CT-26 cells inducibly expressing GFP-FAK-NT1; format: cell-based, murine
# Protocol: A stable CT-26 cell line was generated per ARIAD-ARGENT protocols and GFP-FAK-NT1 expression was induced using 50 nM of the provided non-immunosuppressive rapalog, AP21967 with an equal volume of ethanol used as the control vehicle. Forty eight hours after induction, the cells were trypsinized for adhesion experiments.
# Experimental pressure conditions were controlled using an airtight box with inlet and outlet valves, thumb screws, a pressure gauge and an O-ring for an airtight (11, 25). The box was prewarmed to 37° C. for 1 hour to […] minimize temperature fluctuations experienced by the cells. The gas used for pressurization was a filtered 5% CO2/95% air mixture consistent with the atmosphere in which the cells were routinely cultured. The temperature was maintained within ±2° C. and the pressure within ±1.5 mmHg.
# 100,000 Caco-2 or CT-26 cells were seeded to collagen I coated 6-well plates under ambient or increased pressure conditions for 30 minutes. Non-adherent cells were washed away, and the remainder fixed with 0.01 M NaIO4, 0.75 M lysine, 0.0375 M sodium phosphate buffer, pH 7.4, and 2% paraformaldehyde on ice for 1 hour. The adherent cells were counted microscopically in at least 20 random high power fields per well under a fluorescent microscope. […]
# T1 sequence (P31749 whole entry, the tested form may be a part): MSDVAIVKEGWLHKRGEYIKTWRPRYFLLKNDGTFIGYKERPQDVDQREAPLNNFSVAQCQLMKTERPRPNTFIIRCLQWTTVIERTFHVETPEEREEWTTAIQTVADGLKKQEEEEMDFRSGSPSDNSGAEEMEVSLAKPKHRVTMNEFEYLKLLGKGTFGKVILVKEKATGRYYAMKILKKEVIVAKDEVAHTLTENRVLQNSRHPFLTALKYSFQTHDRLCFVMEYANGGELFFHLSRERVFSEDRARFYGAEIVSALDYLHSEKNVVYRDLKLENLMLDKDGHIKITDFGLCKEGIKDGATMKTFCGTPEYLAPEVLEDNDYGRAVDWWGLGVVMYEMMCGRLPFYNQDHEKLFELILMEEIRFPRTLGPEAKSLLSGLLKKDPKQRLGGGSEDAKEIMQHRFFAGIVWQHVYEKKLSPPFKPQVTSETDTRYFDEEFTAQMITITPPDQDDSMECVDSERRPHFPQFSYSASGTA
molecule,measurement,setting,value
B1,HA-tagged protein in eluate after passage over GST-Akt1 beads (Western blot for HA),Akt1 [1],enriched
B2,Akt1 pulled down by GST-FAK truncations,Akt1 [2],significantly more Akt1
B3,HA-tagged protein in eluate after passage over GST-Akt1 beads (Western blot for HA),Akt1 [1],markedly reduced
B4,Pressure-induced adhesion,Caco-2 cells; 15 mmHg increased pressure 30 minutes,inhibited
same,Basal levels of adhesion,Caco-2 cells; ambient pressure,reduced
same,Stimulation of cell adhesion by increased pressure,"CT-26 cells; CT26, expression induced 48 hours before, 15 mmHg 30 minutes, vs GFP control",prevented the stimulation of cell adhesion by increased pressure
same,Basal levels of adhesion,"CT-26 cells; CT26, inducible expression",reduced
B5,Akt1 pulled down by GST-FAK truncations,Akt1 [2],significantly more Akt1
same,Akt1 pulled down by GST-FAK-NT1-conjugated Sepharose beads,Akt1 [2]; overnight incubation with either cell lysate or purified Akt1,pulled down Akt1
